{"source": "paper PMC10715029", "about": "“Interaction and assembly of the DNA replication core proteins of Kaposi’s sarcoma-associated herpesvirus” (Microbiology Spectrum, 2023)", "settings_in_all_cases": "partners not purified", "key": {"GAL4-ORF40/41 [1]": {"target": "T1, GAL4-ORF40/41 (Kaposi's sarcoma-associated herpesvirus …, UniProt Q2HR92 1-669)", "T1 construct": "KSHV ORF40/41, primase-associated factor (PAF); source: 293T, transfected, mammalian two-hybrid fusion", "T1 sequence": "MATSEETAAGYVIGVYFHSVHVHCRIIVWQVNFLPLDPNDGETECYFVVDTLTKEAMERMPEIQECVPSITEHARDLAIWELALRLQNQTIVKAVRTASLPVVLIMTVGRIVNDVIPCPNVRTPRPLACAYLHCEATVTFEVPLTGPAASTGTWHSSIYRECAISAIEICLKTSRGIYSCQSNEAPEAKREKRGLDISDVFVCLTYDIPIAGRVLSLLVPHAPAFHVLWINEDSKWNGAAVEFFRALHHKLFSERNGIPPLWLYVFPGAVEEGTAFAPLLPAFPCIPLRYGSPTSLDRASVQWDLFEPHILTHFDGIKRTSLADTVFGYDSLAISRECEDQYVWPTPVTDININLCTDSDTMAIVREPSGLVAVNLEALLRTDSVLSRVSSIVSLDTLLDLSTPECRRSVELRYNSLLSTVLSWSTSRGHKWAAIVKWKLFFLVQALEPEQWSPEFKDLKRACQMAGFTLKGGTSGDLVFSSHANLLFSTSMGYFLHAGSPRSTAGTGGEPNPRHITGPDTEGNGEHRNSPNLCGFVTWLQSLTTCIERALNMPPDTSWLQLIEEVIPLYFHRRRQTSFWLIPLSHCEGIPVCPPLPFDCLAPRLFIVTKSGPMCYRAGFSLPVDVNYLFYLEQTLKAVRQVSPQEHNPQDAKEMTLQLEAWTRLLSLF", "assay": "two-hybrid; mammalian two-hybrid (GAL4/VP16) in 293T cells, pGal4(5×)-Luc reporter, only the GAL4 and the VP16 fusion coexpressed, luciferase at 24 h, fold activation over empty vector; radicicol (0.25-1 µM) inhibited the activation by GAL4-ORF59 and VP16-ORF9 dose-dependently"}, "GAL4-ORF56": {"target": "T2, GAL4-ORF56 (Kaposi's sarcoma-associated herpesvirus …, UniProt Q76RG1 1-843)", "T2 construct": "KSHV ORF56, primase (PRI); also called GALF4-ORF56; source: 293T, transfected, mammalian two-hybrid fusion", "T2 sequence": "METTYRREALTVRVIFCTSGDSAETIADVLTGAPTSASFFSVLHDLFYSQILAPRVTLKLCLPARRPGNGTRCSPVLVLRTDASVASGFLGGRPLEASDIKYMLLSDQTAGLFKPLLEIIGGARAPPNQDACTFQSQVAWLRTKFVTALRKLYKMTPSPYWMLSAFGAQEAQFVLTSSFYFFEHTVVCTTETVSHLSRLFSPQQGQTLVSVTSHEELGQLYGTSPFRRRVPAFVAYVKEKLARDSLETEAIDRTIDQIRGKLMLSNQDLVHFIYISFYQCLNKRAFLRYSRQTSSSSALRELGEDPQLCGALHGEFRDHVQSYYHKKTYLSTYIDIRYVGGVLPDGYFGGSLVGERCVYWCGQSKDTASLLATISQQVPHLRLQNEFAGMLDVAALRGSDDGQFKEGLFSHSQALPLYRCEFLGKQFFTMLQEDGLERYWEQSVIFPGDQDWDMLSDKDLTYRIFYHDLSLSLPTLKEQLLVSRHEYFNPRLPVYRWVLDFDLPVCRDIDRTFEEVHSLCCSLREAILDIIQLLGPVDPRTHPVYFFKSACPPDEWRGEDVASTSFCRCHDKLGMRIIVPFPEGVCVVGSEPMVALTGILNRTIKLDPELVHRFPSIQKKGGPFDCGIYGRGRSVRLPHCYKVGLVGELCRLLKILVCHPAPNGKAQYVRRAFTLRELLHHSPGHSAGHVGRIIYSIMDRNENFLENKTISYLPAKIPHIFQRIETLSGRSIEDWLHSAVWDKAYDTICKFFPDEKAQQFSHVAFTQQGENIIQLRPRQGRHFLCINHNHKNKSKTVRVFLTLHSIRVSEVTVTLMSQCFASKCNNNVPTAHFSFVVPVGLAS", "assay": "two-hybrid; mammalian two-hybrid (GAL4/VP16) in 293T cells, pGal4(5×)-Luc reporter, GAL4 and VP16 fusions coexpressed with further FLAG-tagged core replication proteins, luciferase at 24 h, fold activation over empty vector; radicicol (0.25-1 µM) inhibited the activation by GAL4-ORF56, VP16-ORF44 and F-ORF40/41 dose-dependently"}, "GAL4-ORF40/41 [2]": {"target": "T1, GAL4-ORF40/41", "assay": "two-hybrid; mammalian two-hybrid (GAL4/VP16) in 293T cells, pGal4(5×)-Luc reporter, GAL4 and VP16 fusions coexpressed with further FLAG-tagged core replication proteins, luciferase at 24 h, fold activation over empty vector; radicicol (0.25-1 µM) inhibited the activation by GAL4-ORF56, VP16-ORF44 and F-ORF40/41 dose-dependently"}}}
{"binder": "VP16-ORF6 (natural protein, source: 293T, transfected, mammalian two-hybrid fusion) MALKGPQTLEENIGSAAPTGPCGYLYAYVTHNFPIGEASLLGNGYPEAKVFSLPLLHGLTVESDFPLNVKAVHKKIDATTASVKLTSYHREAIVFHNTHLFQPIFQGKGLEKLCRESRELFGFSTFVEQQHKGTLWSPEACPQLPCANEIFMAVIVTEGFKERLYGGKLVPVPSQTTPVHIGEHQAFKIPLYDEDLFGPSRAQELCRFYNPDISRYLHDSIFTGIAQALRVKDVSTVIQASERQFVHDQYKIPKLVQAKDFPQCASRGTDGSTLMVIDSLVAELGMSYGLSFIEGPQDSCEVLNYDTWPIFENCETPDARLRALEVWHAEQALHIGAQLFAANSVLYLTRVAKLPQKNQRGDANMYNSFYLQHGLGYLSEATVKENGASAFKGVPVSALDGSSYTLQHLAYASSFSPHLLARMCYYLQFLPHHKNTNSQSYNVVDYVGTAAPSQMCDLCQGQCPAVCINTLFYRMKDRFPPVLSNVKRDPYVITGTAGTYNDLEILGNFATFREREEEGNPVEDAPKYTYWQLCQNITEKLASMGISEGGDALRTLIVDIPSFVKVFKGIDSTVEAELLKFINCMIKNNYNFRENIKSVHHILQFACNVYWQAPCPVFLTLYYKSLLTVIQDICLTSCMMYEQDNPAVGIVPSEWLKMHFQTMWTNFKGACFDKGAITGGELKIVHQSMFCDLFDTDAAIGGMFAPARMQVRIARAMLMVPKTIKIKNRIIFSNSTGAESIQAGFMKPASQRDSYIVGGPYMKFLNALHKTLFPSTKTSALYLWHKIGQTTKNPILPGVSGEHLTELCNYVKASSQAFEEINVLDLVPDTLTSYAKIKLNSSILRACGQTQFYATTLSCLSPVTQLVPAEEYPHVLGPVGLSSPDEYRVKVAGRSVTIVQSTLKQAVSTNGRLRPIITVPLVVNKYTGSNGNTNVFHCANLGYFSGRGVDRNLRPESVPFKKNNVSSMLRKRHVIMTPLVDRLVKRIVGINSGEFEAEAVKRSVQNVLEDRDNPNLPKTVVLELVKHLGSSCASLTEEDVIYYLGPYAVLGDEVLSLLSTVGQAGVPWTAEGVASVIQDIIDDCELQFVGPEEPCLIQGQSVVEELFPSPGVPSLTVGKKRKIASLLSDLDL", "values": [{"measurement": "fold reporter activation", "setting": "GAL4-ORF40/41 [1]", "result": 56, "unit": "fold"}]}
{"binder": "VP16-ORF40/41 (natural protein, KSHV ORF40/41, primase-associated factor (PAF); source: 293T, transfected, mammalian two-hybrid fusion) MATSEETAAGYVIGVYFHSVHVHCRIIVWQVNFLPLDPNDGETECYFVVDTLTKEAMERMPEIQECVPSITEHARDLAIWELALRLQNQTIVKAVRTASLPVVLIMTVGRIVNDVIPCPNVRTPRPLACAYLHCEATVTFEVPLTGPAASTGTWHSSIYRECAISAIEICLKTSRGIYSCQSNEAPEAKREKRGLDISDVFVCLTYDIPIAGRVLSLLVPHAPAFHVLWINEDSKWNGAAVEFFRALHHKLFSERNGIPPLWLYVFPGAVEEGTAFAPLLPAFPCIPLRYGSPTSLDRASVQWDLFEPHILTHFDGIKRTSLADTVFGYDSLAISRECEDQYVWPTPVTDININLCTDSDTMAIVREPSGLVAVNLEALLRTDSVLSRVSSIVSLDTLLDLSTPECRRSVELRYNSLLSTVLSWSTSRGHKWAAIVKWKLFFLVQALEPEQWSPEFKDLKRACQMAGFTLKGGTSGDLVFSSHANLLFSTSMGYFLHAGSPRSTAGTGGEPNPRHITGPDTEGNGEHRNSPNLCGFVTWLQSLTTCIERALNMPPDTSWLQLIEEVIPLYFHRRRQTSFWLIPLSHCEGIPVCPPLPFDCLAPRLFIVTKSGPMCYRAGFSLPVDVNYLFYLEQTLKAVRQVSPQEHNPQDAKEMTLQLEAWTRLLSLF", "values": [{"measurement": "fold reporter activation (F-ORF44 coexpressed)", "setting": "GAL4-ORF56", "result": "≤ 280", "unit": "fold"}]}
{"binder": "VP16-ORF44 (natural protein, KSHV ORF44, helicase (HEL); source: 293T, transfected, mammalian two-hybrid fusion) MDSSEGCTDMDEPSPGFILNMTSDAKVRSVVEQIDRLSNITTSPPEMGWYDLEFDPLEDEGPFLPFSAYVITGTAGAGKSTSVSALHQNLNCLITGATVVAAQNLSRALKSYCPTIYHAFGFKSRHINICQRKVPKVTQSSIEQLQRYELARYWPTVTDIIREFMRKKQKGQYSSLSQSAFRLLCRMGGANLWTSNIIVIDEAGTLSSHILTAVVFFYWFYNSWLDTPLYRNGAVPCIVCVGSPTQTDAFQSVFNHTQQRNEISACDNVLTFLLGKREVADYIRLDENWALFINNKRCTDPQFGHLLKTLEYNLDISPELMDYIDRFVVPKSKILDPLEYAGWTRLFISHQEVKSFLATLHTCLSSNKDAVSTKLFTCPVVCEVFTEPFEEYKRAVGLTHMTPIEWVTKNLFRLSNYSQFADQDMAVVGTYITDASTQITFATKFVKNSYATLTGKTKKCICGFHGSYQRFKSILDGELFIESHSHDNPAYVYSFLSTLLYNAMYSFYAHGVKQGHEEFLRDLRELPVSQELISEMSSEDVLGQEGDTDAFYLTASLPPSPTHAALPTLVAYYSGAKELFCNRLALARRHFGDEFLHSDFSTFTVNIVVRDGVDFVSTSPGLHGLVAYASTIDTYIIQGYTFLPVRFGRPGGQRLSEDLRRKMPSIVVQDSSGFIACLENNVTKMTETLEGGDVFNICCAGDYGISSNLAMTIVKAQGVSLSRVAISFGNHRNIRASLVYVGVSRAIDARYLVMDSNPLKLMDRGDAQSPSSKYIIKALCNPKTTLIY", "values": [{"measurement": "fold reporter activation (F-ORF40/41 coexpressed)", "setting": "GAL4-ORF56", "result": "≤ 55", "unit": "fold"}, {"measurement": "fold reporter activation (F-ORF56 coexpressed)", "setting": "GAL4-ORF40/41 [2]", "result": "≤ 60", "unit": "fold"}]}
